From US20200317768A1 (published 2020) come the findings set out here.

One assay has as its target T1, mature myostatin (human (mature form 100% identical in …, UniProt O08689 268-376 (mouse entry))).
T1 construct: Disulfide-bonded homodimer purified from latent myostatin; Biotinylated in the ELISA; also called human myostatin mature form; active myostatin
T1 sequence: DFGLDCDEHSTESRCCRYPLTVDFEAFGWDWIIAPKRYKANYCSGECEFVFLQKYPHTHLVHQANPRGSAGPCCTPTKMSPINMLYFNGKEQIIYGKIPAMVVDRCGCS
The assay can be described thus: ELISA, biotinylated antigen (4 nM) on streptavidin plate, anti-human IgG-HRP. The procedure:
Uncoated ELISA plates (NUNC-IMMUNO plate MAXISORP surface, Nalge Nunc International) were coated with 20 μL of 50 nM streptavidin (GenScript) for 1 hour at room temperature. Plates were then washed with PBST three times and blocked with 50 μL 20% Blocking One (Nacalai Tesque) overnight. On the next day, each well of each plate was incubated with biotinylated mature myostatin, human or mouse biotinylated latent myostatin, or biotinylated recombinant mouse myostatin propeptide-Fc chimera protein (R&D Systems) at 4 nM/well/20 μL for 2 hours. After washing, 20 μL of antibody sample was added to the wells and the plates were left for 1 hour. The plates were washed and 20 μL of anti-human IgG-horseradish peroxidase (HRP) (Abcam) diluted in HEPES-buffered saline was added, and the plates were left for another hour. The plates were then washed again, and then 50 μL ABTS (KPL) was added to each well, and the plates were incubated for 1 hour.

The target in assay [1] is T2, Human GDF11 with Flag-tag on N-terminus (human, UniProt O95390 11-407).
T2 construct: Whole entry as named; Biotinylated in the ELISA; also called Flag-hGDF11; human latent GDF11
T2 sequence: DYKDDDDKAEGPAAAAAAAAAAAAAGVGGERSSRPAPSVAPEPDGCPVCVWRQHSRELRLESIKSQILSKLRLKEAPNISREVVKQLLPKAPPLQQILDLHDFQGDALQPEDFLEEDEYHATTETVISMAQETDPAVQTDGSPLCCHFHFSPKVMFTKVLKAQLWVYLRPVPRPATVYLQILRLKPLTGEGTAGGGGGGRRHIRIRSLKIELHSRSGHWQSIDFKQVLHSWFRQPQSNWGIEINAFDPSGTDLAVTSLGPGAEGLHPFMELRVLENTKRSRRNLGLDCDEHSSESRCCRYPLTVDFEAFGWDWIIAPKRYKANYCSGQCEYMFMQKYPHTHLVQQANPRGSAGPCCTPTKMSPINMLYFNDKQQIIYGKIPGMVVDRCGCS
The assay can be described thus: ELISA, biotinylated human latent GDF11 (20 nM) on streptavidin plate, anti-human IgG-HRP. The method, then: Uncoated ELISA plates (NUNC-IMMUNO plate MAXISORP™ surface, Nalge Nunc International) were coated with 20 μL of 50 nM streptavidin (GenScript) for 2 hour at room temperature. Plates were then washed with PBST three times and blocked with 50 μL 20% Blocking One (Nacalai Tesque) for overnight. On the next day, each well of the plates was incubated with biotinylated human latent myostatin at 2 nM/well/20 μL or biotinylated human latent GDF11 at 20 nM/well/20 μL for 2 hours. After washing, 20 μL of antibody sample was added to the wells and the plates were left for 1 hour. The plates were washed and 20 μL of anti-human IgG-horseradish peroxidase (HRP) (Abcam) diluted in HEPES-buffered saline was added, and the plates were left for another hour. The wells were washed again, and then 50 μL ABTS (KPL) was added to each well, and the plates were incubated for 1 hour.
In general terms: In an ELISA, binding on a coated surface is turned into a signal by an enzyme label.

For assay [2], the target named is T3, Human latent myostatin (human, UniProt O14793 25-266; O14793 267-375).
T3 construct: Biotinylated in the ELISAs; also called human myostatin latent form
T3 sequence 1: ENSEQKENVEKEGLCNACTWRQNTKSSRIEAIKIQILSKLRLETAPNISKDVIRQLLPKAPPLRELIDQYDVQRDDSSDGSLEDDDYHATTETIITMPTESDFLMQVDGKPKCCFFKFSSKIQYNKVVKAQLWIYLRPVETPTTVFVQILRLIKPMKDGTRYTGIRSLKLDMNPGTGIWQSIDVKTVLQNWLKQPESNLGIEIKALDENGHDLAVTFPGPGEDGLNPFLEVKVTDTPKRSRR
T3 sequence 2: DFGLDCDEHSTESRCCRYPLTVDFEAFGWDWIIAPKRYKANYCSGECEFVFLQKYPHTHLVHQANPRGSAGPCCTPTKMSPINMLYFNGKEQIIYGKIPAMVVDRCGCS
The assay can be described thus: SPR (BIACORE T200), antibody captured by ProA/G, latent myostatin as analyte, 37 C, pH7.4, 1:1 fit. The procedure:
(§1) The kinetic parameters of anti-latent myostatin antibodies against human, cynomolgus monkey (cyno), and mouse latent myostatin were assessed at 37° C. at pH7.4 using a BIACORE® T200 instrument (GE Healthcare). ProA/G (Pierce) was immobilized onto all flow cells of a CM4 chip using amine coupling kit (GE Healthcare). Anti-latent myostatin antibody and analytes were prepared in ACES pH7.4 (20 mM ACES, 150 mM NaCl, 1.2 mM CaCl₂), 0.05% TWEEN® 20, 0.005% NaN₃). […] Then human, cyno, or mouse latent myostatin was injected at 3.125 to 50 nM prepared by two-fold serial dilution, followed by dissociation. The sensor surface was regenerated with 25 mM NaOH. Kinetic parameters were determined by processing and fitting the data to a 1:1 binding model using BIACORE® T200 Evaluation software, version 2.0 (GE Healthcare).

Assay [3] deals with T4, Cynomolgus monkey latent myostatin (cynomolgus monkey, UniProt Q95J86 25-266; Q95J86 267-375).
T4 construct: signal 1-24; also called Cyno latent myostatin
T4 sequence 1: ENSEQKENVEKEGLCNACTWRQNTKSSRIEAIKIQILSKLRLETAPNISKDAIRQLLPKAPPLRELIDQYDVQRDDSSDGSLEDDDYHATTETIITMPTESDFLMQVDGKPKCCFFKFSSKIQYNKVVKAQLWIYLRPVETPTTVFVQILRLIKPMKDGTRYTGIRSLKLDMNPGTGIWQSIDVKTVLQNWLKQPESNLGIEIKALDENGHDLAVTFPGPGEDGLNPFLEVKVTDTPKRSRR
T4 sequence 2: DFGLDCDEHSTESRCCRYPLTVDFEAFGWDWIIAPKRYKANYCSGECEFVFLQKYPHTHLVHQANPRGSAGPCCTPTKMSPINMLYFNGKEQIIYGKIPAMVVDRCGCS
Described as above. The method, then: as §1

In the next assay the target is T5, Mouse latent myostatin (mouse, UniProt O08689 26-267; O08689 268-376).
T5 construct: signal 1-24
T5 sequence 1: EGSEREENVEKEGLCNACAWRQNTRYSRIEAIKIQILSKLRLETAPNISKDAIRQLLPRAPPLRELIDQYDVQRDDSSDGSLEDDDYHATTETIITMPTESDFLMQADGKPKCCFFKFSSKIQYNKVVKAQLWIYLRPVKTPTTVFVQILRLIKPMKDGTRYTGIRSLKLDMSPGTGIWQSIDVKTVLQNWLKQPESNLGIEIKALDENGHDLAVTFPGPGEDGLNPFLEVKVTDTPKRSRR
T5 sequence 2: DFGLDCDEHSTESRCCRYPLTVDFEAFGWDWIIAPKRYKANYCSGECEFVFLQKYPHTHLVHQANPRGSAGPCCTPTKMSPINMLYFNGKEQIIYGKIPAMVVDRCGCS
The assay is described as above. The method, then:
as §1

Assay [4] deals with T3, Human latent myostatin. Briefly: SPR (BIACORE) as in Example 7; antigen not given, values equal those for human latent myostatin in Table 3. The method, then:
as §1
Humanized antibodies were transiently expressed in FS293-F cells, and HEK Blue Assay and BIACORE® analysis were carried out as described above.
Background: In SPR one partner is held on a chip, and binding of the other changes the refractive index at the surface.

The Kd is the concentration at which binding is half-saturated. One may read the koff as the first-order rate constant of dissociation. The kon is the rate constant with which the complex forms.

B1: MS_MST1032Ha-G1m/MST1032La-k0MC (antibody, human IgG1, kappa, V domains shown)
VH: QSLEESGGRLVTPGGSLTVTCRVSGIDLSSYDISWVRQAPGKGLEWIGIISYAGSTYYASWAKGRFTISKTSTTVDLKMTSLTTEDTATYFCARGVPAYSTGGDLWGPGTLVTVSS
VL: AQVLTQTASSVSAAVGGTVTINCQSSQSVYDNNWLSWFQQKPGQPPKLLIYWASTLASGVPSRFKGSGSGTQFTLTISDLECDDAATYYCAGGYGGGLYAFGGGTKVEIKR
notes: Chimeric antibody: rabbit variable regions, human G1m / k0MC constant regions; also called MST1032-G1m
Take B1: the binding result (with mature myostatin; in assay [1]) was “no binding” each time. The Kd is 0.0766 nM with Human latent myostatin [2], 0.0717 nM in assay [3], 0.0579 nM with Mouse latent myostatin and 0.0766 nM in the assay with Human latent myostatin [4]. Also, the koff with Human latent myostatin [2] turned out to be 8.65e-05 s⁻¹; in assay [3], 7.79e-05 s⁻¹; in the assay with Mouse latent myostatin, 8.16e-05 s⁻¹; in the assay with Human latent myostatin [4] it was 8.65e-05 s⁻¹. Also, the kon with Human latent myostatin [2] came to 1.13e+06 M⁻¹ s⁻¹; in assay [3] it was 1.09e+06 M⁻¹ s⁻¹; with Mouse latent myostatin it was 1.41e+06 M⁻¹ s⁻¹; in the assay with Human latent myostatin [4], 1.13e+06 M⁻¹ s⁻¹.
